T1: TROP2 on TROP2-positive NCI-H1975 cells (human, UniProt P09758 27-323)
T1 sequence: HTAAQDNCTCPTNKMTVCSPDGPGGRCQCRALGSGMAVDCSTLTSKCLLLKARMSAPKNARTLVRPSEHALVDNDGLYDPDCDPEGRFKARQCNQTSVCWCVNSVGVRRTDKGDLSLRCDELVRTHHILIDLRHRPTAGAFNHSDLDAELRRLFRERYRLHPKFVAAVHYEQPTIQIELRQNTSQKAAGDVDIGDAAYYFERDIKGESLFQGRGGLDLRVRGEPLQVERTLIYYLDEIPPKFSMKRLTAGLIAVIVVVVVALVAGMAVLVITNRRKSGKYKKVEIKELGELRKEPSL

T2: Human TROP2 Protein, His Tag (Acro Biosystems) (human, UniProt P09758 27-274)
T2 construct: Soluble analyte of the Octet assay; also called TACSTD2; not shown: His tag
T2 sequence (looked up): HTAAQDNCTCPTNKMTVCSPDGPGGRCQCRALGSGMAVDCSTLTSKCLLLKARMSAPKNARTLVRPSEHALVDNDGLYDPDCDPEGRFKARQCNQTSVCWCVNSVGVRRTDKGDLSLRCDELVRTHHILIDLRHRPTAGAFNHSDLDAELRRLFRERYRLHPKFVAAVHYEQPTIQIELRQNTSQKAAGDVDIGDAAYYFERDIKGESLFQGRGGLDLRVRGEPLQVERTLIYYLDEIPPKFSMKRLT

B1: 112-DXd (antibody, IgG1, V domains shown)
VH: QVQLVQSGAEVKKPGASVKVSCKASGYTFTTAGMQWVRQAPGQGLEWMGWINTHSGVPKYAEDFKGRVTISADTSTSTAYLQLSSLKSEDTAVYYCARSGFGSSYWYFDVWGQGTLVTVSS
VL: DIQMTQSPSSLSASVGDRVTITCKASQDVSTAVAWYQQKPGKAPKLLIYSASYRYTGVPSRFSGSGSGTDFTLTISSLQPEDFAVYYCQQHYITPLTFGQGTKLEIK
modifications: maleimide based GGFG-DXd conjugated to hinge cysteines, average DAR of about 4
B2: 170-DXd (antibody, IgG1, V domains shown)
VH: QVQLQESGPGLVKPSETLSLTCTVSGGSISSYGVHWIRQPPGKGLEWIGVIWTSGVTDYNSALMGRVTISVDTSKNQFSLKLSSVTAADTAVYYCARDGDYDRYTMDYWGQGTLVTVSS
VL: DIVMTQSPDSLAVSLGERATINCRASKSVSTSGYSYMHWYQQKPGQPPKLLIYLASNLHSGVPDRFSGSGSGTDFTLTISSLQAEDVAVYYCHHSRHLPYTFGQGTKLEIK
modifications: maleimide based GGFG-DXd conjugated to hinge cysteines, average DAR of about 4
B3: 169-DXd (antibody, IgG1, V domains shown)
VH: QVQLQESGPGLVKPSETLSLTCTVSGGSISSYGVHWIRQPPGKGLEWIGVIWTSGVTDYNSALMGRVTISVDTSKNQFSLKLSSVTAADTAVYYCARDGDYDRYTMDYWGQGTLVTVSS
VL: DIVMTQSPDSLAVSLGERATINCRASKSVSTSGYSYMHWYQQKPGQPPKLLIYLASNLESGVPDRFSGSGSGTDFTLTISSLQAEDVAVYYCQHSRELPYTFGQGTKLEIK
modifications: maleimide based GGFG-DXd conjugated to hinge cysteines, average DAR of about 4
B4: MYT13198 (antibody, V domains shown)
VH: QVQLQQSGSELKKPGASVKVSCKASGYTFTNYGMNWVKQAPGQGLKWMGWINTYTGEPTYTDDFHGRFAFSLDTSVSTAYLQISSLKADDTAVYFCARGGFGSSYWYFDVWGQGSLVTVSS
VL: DIQLTQSPSSLSASVGDRVSITCKASQDVSIAVAWYQQKPGKAPKLLIYSASHRYTGVPDRFSGSGSGTDFTLTISSLQPEDFAVYYCQQHYITPLTFGAGTKVEIK
notes: Sacituzumab HC-LC pairing variant; IgG
B5: MYT13203 (antibody, V domains shown)
VH: QVQLQQSGSELKKPGASVKVSCKASGYTFTNYGMNWVKQAPGQGLKWMGWINTYTGEPTYTHDFKGRFAFSLDTSVSTAYLQISSLKADDTAVYFCARGGFGSSYWYFDVWGQGSLVTVSS
VL: DIQLTQSPSSLSASVGDRVSITCKASQDVSIAVAWYQQKPGKAPKLLIYSASYRYTGVPDRFSGSGSGTDFTLTISSLQPEDFAVYYCHQHYITPLTFGAGTKVEIK
notes: as for B4
B6: MYT13199 (antibody, V domains shown)
VH: QVQLQQSGSELKKPGASVKVSCKASGYTFTNYGMNWVKQAPGQGLKWMGWINTYTGEPTYTDDFKHRFAFSLDTSVSTAYLQISSLKADDTAVYFCARGGFGSSYWYFDVWGQGSLVTVSS
VL: DIQLTQSPSSLSASVGDRVSITCKASQDVSIAVAWYQQKPGKAPKLLIYSASHRYTGVPDRFSGSGSGTDFTLTISSLQPEDFAVYYCQQHYITPLTFGAGTKVEIK
notes: as for B4
B7: MYT13187 (antibody, V domains shown)
VH: QVQLQQSGSELKKPGASVKVSCKASGYTFTNYGMNWVKQAPGQGLKWMGWINTYTGEPTYTHDFKGRFAFSLDTSVSTAYLQISSLKADDTAVYFCARGGFGSSYWYFDVWGQGSLVTVSS
VL: DIQLTQSPSSLSASVGDRVSITCKASQDVSIAVAWYQQKPGKAPKLLIYSAHYRYTGVPDRFSGSGSGTDFTLTISSLQPEDFAVYYCQQHYITPLTFGAGTKVEIK
notes: as for B4

biological target: T1, TROP2 on TROP2-positive NCI-H1975 cells; test: cell-based or functional assay

**Q.** For B1, which “% efficiency @ 100 nM ADC (cytotoxicity in NCI-H1975 cells)” value (“% efficiency @ 100 nM ADC” below) is on record?
**A.** Its value is -1.22%.

**Q.** For B2, which “% efficiency @ 100 nM ADC” value is on record?
**A.** The value was 5.39%.

**Q.** How did the “% efficiency @ 100 nM ADC” value turn out when B3 was run?
**A.** The value was -3.5%.

biological target: T2, Human TROP2 Protein, His Tag (Acro …); test: BLI (Octet), IgG on anti-human Fc sensor, soluble TROP2; grade 2 = No change vs parent
Protocol: After allowing for four days of protein expression, cell culture supernatants were collected, quantified by SDS-PAGE analysis (DNS), and the pH dependence of the variant was evaluated using biolayer interferometry (BLI) on an Octet RED 96e instrument. Briefly, cell culture supernatants were diluted based on qualitative expression level of the variant determined by visual examination of SDS-PAGE gels, 5 μL of cell culture supernatant was diluted into 195 μL of 1×PBST, pH 7.4 for high expressors, 25 μL of cell culture supernatant was diluted into 175 μL of 1×PBST, pH 7.4 for medium expressors and 100 μL of cell culture supernatant was diluted into 100 μL of 1×PBST, pH 7.4 for low expressors for loading onto the sensor tips. The resulting diluted supernatants were then captured on an anti-human Fc sensor (Forte Bio). A baseline was established using 1×PBST (50 mM Potassium Phosphate Buffer+150 mM NaCl+0.05% Tween 20) pH 7.4, and the sensor was associated with 50 nM of TROP2 (Human TROP2 Protein, His Tag, Acro Biosystems) in 1×PBST pH 7.4 for 120 sec to generate an association curve. In the dissociation phase, the antibody-antigen complex on the sensor was exposed to 1×PBST pH 7.4 or pH 5.4, for 300 sec. Association and dissociation phase curves were examined for the starting ABPC antibody (with no substitutions) and each corresponding antibody variant at pH 5.4 and pH 7.4 to inform on two criteria: a) enhanced dissociation (i.e., higher koff values) at pH 5.4 due to histidine or alanine substitution compared to the starting ABPC, (with no substitutions), and b) reduced dissociation at pH 7.4 (i.e., lower koff values) compared to pH 5.4 in the antibody variant itself and with the starting ABPC (with no substitutions). […] It was also noted that while some mutations obliterated TROP2 binding, others were tolerated with little or n change in TROP2 binding kinetics.

**Q.** Does B4 bind?
**A.** Result: binds

**Q.** Does B5 bind?
**A.** Result: binds

**Q.** Does B6 bind?
**A.** Result: binds

**Q.** Does B7 bind?
**A.** Result: binds

From patent US20260274985A1 (MYTHIC THERAPEUTICS, published 2026)
